For orientation: EC50 (read off the curve) means the midpoint of the concentration-response curve.

Positions count from the first letter of the chain named. In names and notes the source's numbering stands. Like-named read-outs stand apart in the source and are kept apart here.

For experiment [1], the target named is T1, PD-L1 expressed on the cell surface (CHO/PD-L1 cells) (UniProt Q9NZQ7 19-290). In words: cell-based or functional assay.
Experiment [2] concerns the target T2, CD137 expressed on the cell surface (CHO/CD137 cells) (UniProt Q07011 24-255, limits assumed).
T2 construct: whole, on cells; also called cell surface CD137; Jurkat-NF-κB-Luc reporter cells overexpressing CD137
In words: flow cytometry (FACS) on CHO cells expressing CD137, MFI.

Experiment [3] deals with T1, PD-L1 expressed on the cell surface …. Put plainly: flow cytometry (FACS) on JIMT-1 cells (PD-L1 positive), MFI.
For experiment [4] the target is unchanged. Put plainly: cell-based or functional assay. The source holds these as a separate data set.
Experiment [5] has the same target. In words: cell-based or functional assay. This is another data set of the same source.
In experiment [6] the target is T2, CD137 expressed on the cell surface …. In words: flow cytometry (FACS) on CHO cells expressing CD137, MFI. As to the method:
FACS analysis to evaluate the test articles for binding to cell surface CD137 was performed essentially as follows: 100 μL of CHO cells expressing CD137 (CHO/CD137) (1.0×10⁵ to 1×10⁶ cells/well) and 100 μL of serially diluted test article or control was added to each well of microtiter assay plate(s), mixed and incubated at RT for about 30 min. The cells were washed with FACS Buffer and secondary antibody (goat anti-human-APC, PE, or FITC) was then added to each well (1:1000), after which, the components were mixed and the wells were incubated at RT for about 30 min. Cells were washed and resuspended in 250 μL FACS Buffer and analyzed by flow cytometry (BD LSR Fortessa or FACSCanto II) for cell events collection. Data analysis were performed via FloJo v10.
The source holds these as a separate data set.

The target is the same in experiment [7]. The description is as above. This is another data set of the same source.
In experiment [8] the target is T1, PD-L1 expressed on the cell surface …. Put plainly: cell-based or functional assay. This is another data set of the same source.
The target is the same in experiment [9]. In words: flow cytometry (FACS) on CHO cells expressing PD-L1, MFI. As to the method: (§1) FACS analysis to evaluate the test articles for binding to cell surface PD-L1 was performed essentially as follows: 100 μL of CHO cells expressing PD-L1 (CHO/PD-L1) (1.0×10⁵ to 1.0×10⁶ cells/well) and 100 μL of serially diluted test article was added to each well of microtiter assay plate(s), mixed and incubated at RT for about 30 min. The cells were washed with FACS Buffer and secondary antibody (goat anti-human-FITC, PE, or APC) was then added to each well, after which, the components were mixed and the wells were incubated at RT for about 30 min. Cells were washed and resuspended in 250 μL FACS Buffer and analyzed by flow cytometry (BD LSR Fortessa or FACSCanto II) for cell events collection. Data analysis were performed via FloJo v10.
Test articles were used at 10 μg/mL and five-fold serial dilutions for the FACS analysis and at 50 μg/mL and five-fold serial dilutions for the PD-L1 reporter assay.
(Flow cytometry measures light scatter and fluorescence of single cells or particles in a stream.)

Experiment [10] has the same target. In words: cell-based or functional assay. The source holds these as a separate data set.
The target in experiment [11] is T3, soluble PD-L1 fused to a His tag (shPD-L1) (UniProt Q9NZQ7 19-238, limits assumed).
T3 construct: the species of shPD-L1 is not written out; also called shPD-L1-his; not shown: His tag
T3 sequence (Q9NZQ7 19-238 limits assumed): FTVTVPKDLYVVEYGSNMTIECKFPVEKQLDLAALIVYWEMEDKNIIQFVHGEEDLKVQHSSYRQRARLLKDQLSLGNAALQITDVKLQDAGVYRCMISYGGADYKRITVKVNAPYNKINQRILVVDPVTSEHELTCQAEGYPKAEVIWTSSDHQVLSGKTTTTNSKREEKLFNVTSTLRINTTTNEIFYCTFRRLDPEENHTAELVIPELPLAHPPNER
Put plainly: ELISA on plate-coated shPD-L1. On the procedure:
For the hybridoma supernatants anti-CD137 antibody was utilized at 1.0 μg/mL and six three-fold serial dilutions. The amount of test article binding to the immobilized CD137 (human or cynomolgus monkey) was assessed using a goat anti-mouse IgG-HRP secondary antibody. All samples were analyzed on a plate reader (Victor 2 Wallac, Perkin Elmer) and EC50 values were calculated from dose-response curves by nonlinear regression analysis.
The binding of antibodies comprising these substitutions were evaluated for binding to a soluble PD-L1- fused to a His tag (shPD-L1) using an ELISA assay essentially as described above for CD137 binding except the plates were coated with shPD-L1 at 0.5 μg/mL and a goat anti-human IgG-HRP secondary antibody was used.
In general terms: ELISA stands for enzyme-linked immunosorbent assay.

In experiment [12] the target is T1, PD-L1 expressed on the cell surface …. In words: flow cytometry (FACS) on CHO cells expressing PD-L1, MFI. As to the method: as §1
This is another data set of the same source.

T1 sequence (Q9NZQ7 19-290): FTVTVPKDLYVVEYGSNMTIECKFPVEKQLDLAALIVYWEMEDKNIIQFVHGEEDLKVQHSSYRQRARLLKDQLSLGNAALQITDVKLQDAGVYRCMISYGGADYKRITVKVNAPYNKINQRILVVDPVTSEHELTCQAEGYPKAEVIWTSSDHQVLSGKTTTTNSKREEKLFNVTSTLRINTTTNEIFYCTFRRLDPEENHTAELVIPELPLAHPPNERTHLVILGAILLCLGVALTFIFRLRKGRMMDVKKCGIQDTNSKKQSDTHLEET
T2 sequence (Q07011 24-255 limits assumed): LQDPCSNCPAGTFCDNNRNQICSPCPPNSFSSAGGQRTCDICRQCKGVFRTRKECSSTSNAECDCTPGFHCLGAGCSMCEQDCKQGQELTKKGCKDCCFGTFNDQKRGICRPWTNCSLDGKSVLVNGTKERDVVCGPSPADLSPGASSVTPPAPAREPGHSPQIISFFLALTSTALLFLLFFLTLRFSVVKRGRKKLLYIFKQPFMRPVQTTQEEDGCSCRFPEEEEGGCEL

B1: DART-A4 (bispecific antibody)
chain 1: DIQMTQSPSSLSASVGDRVTITCKASQDVNEAVAWYQQKPGKAPKLLIYWASTRHTGVPSRFSGSGSGTDFTLTISSLQPEDFATYYCQQHYNTPLTFGQGTKVEIKGGGSGGGGQVQLQESGPGLVKPSETLSLTCTVSGGSISSYYWSWIRQPPGKGLEWIGRIYTSGSTNYNPSLKSRVTMSVDTSKNQFSLKLSSVTAADTAVYYCARDGWYDEDYNYYGMDVWGQGTTVTVSSGGCGGGEVAACEKEVAALEKEVAALEKEVAALEKLEPKSADKTHTCPPCPAPEAAGGPSVFLFPPKPKDTLYITREPEVTCVVVDVSHEDPEVKFNWYVDGVEVHNAKTKPREEQYNSTYRVVSVLTVLHQDWLNGKEYKCKVSNKALPAPIEKTISKAKGQPREPQVYTLPPSREEMTKNQVSLTCLVKGFYPSDIAVEWESNGQPENNYKTTPPVLDSDGSFFLYSKLTVDKSRWQQGNVFSCSVMHEALHNHYTQKSLSLSPGK
chain 2: EIVMTQSPATLSLTPGERATLSCRASQSVSSNYLSWFQQIPGQAPRLLIYGASTRATGIPARFSGSGSGTDFTLTISSLQPEDFAVYYCQQDYDLPWTFGQGTKVEIKGGGSGGGGEVQLVESGGGLVQPGGSLRLSCAASGFTFSSYTMSWVRQAPGKGLEWVAYISIKGGTTYYPDTVKGRFTISRDNAKNSLYLQMNSLRAEDTAVYYCARQGLPYYGDYWGQGTLVTVSSGGCGGGKVAACKEKVAALKEKVAALKEKVAALKE
notes: Tetravalent; CD137 MAB-6(1.1) and hPD-L1 MAB-2(3.2)
Consider B1, for which the concentration giving a half-maximal response (EC50 (read off the curve)) in experiment [1] was about 0.2 µg/mL; in [2], about 0.02 µg/mL; in experiment [3], about 0.004 µg/mL; in [4], about 0.08 µg/mL; in experiment [5], about 0.1 µg/mL; in experiment [6] it was about 0.04 µg/mL.

B2: DART-A6 (bispecific antibody)
chain 1: B1 chain 1
chain 2: B1 chain 2 with T14S, I40K
notes: Tetravalent; CD137 MAB-6(1.3) and hPD-L1 MAB-2(3.2)
With B2, the “EC50 (read off the curve)” value was about 0.2 µg/mL in [1], about 0.02 µg/mL in [2] and about 0.05 µg/mL in experiment [6].

B3: TRIDENT-A5 (bispecific antibody, human IgG1, kappa, L234A L235A)
chain 1: EIVMTQSPATLSLSPGERATLSCRASQSVSSNYLSWYQQKPGQAPRLLIYGASTRATGIPARFSGSGSGTDFTLTISSLQPEDFAVYYCQQDYDLPWTFGQGTKVEIKGGGSGGGGQVQLQESGPGLVKPSETLSLTCTVSGGSISSYYWSWIRQPPGKGLEWIGRIYTSGSTNYNPSLKSRVTMSVDTSKNQFSLKLSSVTAADTAVYYCARDGWYDEDYNYYGMDVWGQGTTVTVSSGGCGGGEVAALEKEVAALEKEVAALEKEVAALEKGGGDKTHTCPPCPAPEAAGGPSVFLFPPKPKDTLYITREPEVTCVVVDVSHEDPEVKFNWYVDGVEVHNAKTKPREEQYNSTYRVVSVLTVLHQDWLNGKEYKCKVSNKALPAPIEKTISKAKGQPREPQVYTLPPSREEMTKNQVSLWCLVKGFYPSDIAVEWESNGQPENNYKTTPPVLDSDGSFFLYSKLTVDKSRWQQGNVFSCSVMHEALHNHYTQKSLSLSPGK
chain 2: EIVMTQSPATLSLSPGERATLSCRASQSVSSNYLSWYQQKPGQAPRLLIYGASTRATGIPARFSGSGSGTDFTLTISSLQPEDFAVYYCQQDYDLPWTFGQGTKVEIKGGGSGGGGQVQLQESGPGLVKPSETLSLTCTVSGGSISSYYWSWIRQPPGKGLEWIGRIYTSGSTNYNPSLKSRVTMSVDTSKNQFSLKLSSVTAADTAVYYCARDGWYDEDYNYYGMDVWGQGTTVTVSSGGCGGGKVAALKEKVAALKEKVAALKEKVAALKE
heavy: EVQLVESGGGLVQPGGSLRLSCAASGFTFSSYTMSWVRQAPGKGLEWVAYISIKGGTTYYPDTVKGRFTISRDNAKNSLYLQMNSLRAEDTAVYYCARQGLPYYGDYWGQGTLVTVSSASTKGPSVFPLAPSSKSTSGGTAALGCLVKDYFPEPVTVSWNSGALTSGVHTFPAVLQSSGLYSLSSVVTVPSSSLGTQTYICNVNHKPSNTKVDKRVEPKSCDKTHTCPPCPAPEAAGGPSVFLFPPKPKDTLYITREPEVTCVVVDVSHEDPEVKFNWYVDGVEVHNAKTKPREEQYNSTYRVVSVLTVLHQDWLNGKEYKCKVSNKALPAPIEKTISKAKGQPREPQVYTLPPSREEMTKNQVSLSCAVKGFYPSDIAVEWESNGQPENNYKTTPPVLDSDGSFFLVSKLTVDKSRWQQGNVFSCSVMHEALHNRYTQKSLSLSPGK
light: DIQMTQSPSSLSASVGDRVTITCKASQDVNEAVAWYQQKPGKAPKLLIYWASTRHTGVPSRFSGSGSGTDFTLTISSLQPEDFATYYCQQHYNTPLTFGQGTKVEIKRTVAAPSVFIFPPSDEQLKSGTASVVCLLNNFYPREAKVQWKVDNALQSGNSQESVTEQDSKDSTYSLSSTLTLSKADYEKHKVYACEVTHQGLSSPVTKSFNRGEC
notes: Trivalent; two CD137 MAB-6(1.2) sites, one hPD-L1 MAB-2(3.2) site
Regarding B3, the “EC50 (read off the curve)” value in [7] was about 0.03 µg/mL.

B4: TRIDENT-A6 (bispecific antibody, human IgG1, kappa, L234A L235A)
chain 1: B3 chain 1 with Y37F
chain 2: B3 chain 2 with Y37F
heavy: B3 heavy
light: B3 light
notes: Trivalent; two CD137 MAB-6(1.3) sites, one hPD-L1 MAB-2(3.2) site
Regarding B4, the results for the “EC50 (read off the curve)” value in experiment [7] and in experiment [8] were about 0.01 µg/mL and about 0.5 µg/mL, respectively.

B5: hPD-L1 MAB-2(1.1) (antibody, V domains shown)
VH: EVQLVESGGGLVQPGGSLRLSCAASGFTFSSYTMSWVRQAPGKGLEWVAYISIGGGTTYYPDTVKGRFTISRDNAKNTLYLQMNSLKTEDTAVYYCARQGLPYYFDYWGQGTLVTVSS
VL: DIQMTQSPSSLSASVGDRVTITCKASQDVNTAVAWYQQKPGKAPKLLIYWASTRHTGVPSRFSGSGSGTDFTLTISSLQPEDFATYYCQQHYNTPLTFGQGTKVEIK
notes: Humanized anti-PD-L1 antibody; also called hPD-1 MAB-2(1.1); hPD-1 MAB-2 VH1
As to B5, the “EC50 (read off the curve)” value in experiment [9] was about 0.03 µg/mL; in [3], about 0.005 µg/mL; in [4] it was about 0.07 µg/mL; in experiment [10], about 0.04 µg/mL.

B6: hPD-1 MAB-2 VH1 + T77S, K83R and T84A (antibody, V domains shown)
VH: B5 VH with T78S, K87R, T88A
VL: B5 VL
notes: also called hPD-L1 MAB-2 VH2; hPD-L1 MAB-2(2.1)
As to B6, in experiment [11], the binding result is on record as “binds”.

B7: hPD-1 MAB-2 VH1 + K83R and T84A (antibody, V domains shown)
VH: B5 VH with K87R, T88A
VL: B5 VL
notes: Deimmunization variant of hPD-L1 MAB-2(1.1)
As for B7, the binding result in experiment [11] is “binds”.

B8: hPD-L1 MAB-2F (antibody) (antibody, V domains shown)
VH: B5 VH with G54K, F105G
VL: B5 VL with T31E
Consider B8, for which the 50% effective concentration (EC50 (read off the curve)) in [1] is about 0.2 µg/mL; in [12], about 0.01 µg/mL; in experiment [8] it was about 0.2 µg/mL.

B9: hPD-1 MAB-2 VH1 + T77S (antibody, V domains shown)
VH: B5 VH with T78S
VL: B5 VL
notes: as for B7
For B9, the binding result in experiment [11] is “binds”.

For the origin of these results see patent US20230094162A1 (MacroGenics, published 2023).
